Laboratory results from patent publication US20240122985A1, “ANTIBODIES, COMBINATIONS COMPRISING ANTIBODIES, BIOMARKERS, USES & METHODS” (KYMAB LIMITED, priority 2016, published 2024).
“And” between values parts separate entries of the source, which are not always exact repeats. Equal entries are not always repeated.

B1: 2D10 IgG4PE: fully human anti-human OX40L monoclonal antibody, human IgG4-PE; VH Seq ID No:34, VL Seq ID No:48; 2D10-1 to -4 are stable pools (antibody, V domains shown)
VH: EVQLVESGGGLVQPGGSLRLSCAASGFTFSNYAMNWVRQAPGKGLEWVSTISGSGGATRYADSVKGRFTISRDNSRNTVYLQMNSLRVEDTAVFYCTKDRLIMATVRGPYYYGMDVWGQGTTVTVSS
VL: DIQMTQSPSSLSASVGDRVTITCRASQSISSYLNWYQQKPGKAPNLLIYAASSLQSGVPSRFSGSGSETDFTLTISSLQPEDFATYYCQQSHSVSFTFGPGTKVDIK
modifications: human IgG4-PE constant regions; 02D10 - VH Amino Acid Sequence; 02D10 - VL Amino Acid Sequence

What was measured:
[1] = system: Rhesus Macaque Graft versus Host Disease (GvHD) model
Excerpt: The effectiveness of antibody 2D10 IgG4PE as a monotherapy prophylactic for the prevention of GvHD was examined in a Rhesus Macaque model of haploidentical hematopoietic stem cell transplantation (HSCT).
All transplants were between half-sibling pairs that are mismatched at one MHC haplotype (“haploidentical-HCTs”). Recipient animals had irradiation based pre-myeloablative pre-transplant conditioning using a linear accelerator. Dose rate: 7cGy/min. Dose 1020 cGy given in 4 fractions. The leukapheresis donor animal underwent GCSF mobilisation and underwent leukapheresis using a Spectra Optia apheresis machine.
2D10 IgG4PE was dosed at 10 mg/kg i.v. according to a planned dosing schedule to take place on Day −2, Day+5, Day+12, Day+19, Day+26, Day+33, Day+40, Day+47 post-transplant.
Samples were taken during the course of the study to monitor donor chimerism (Table 4) and white blood cell counts. The primary end point was based on survival, with a survival to 15 days deemed to be a sign of successful prophylactic therapy (and compared to the documented survival of 6-8 days with no prophylaxis; Miller et al. 2010, supra). Though full pathology and histology with GvHD grading scores, markers of T-cell proliferation and activation (such as Ki-67 and granzyme B) and gene array analysis are planned, they were not available for inclusion at the time of drafting.
Scoring of clinical symptoms was based on observational assessments and clinical chemistry, classified according to the criteria set out in Table 5.
A further rhesus macaque GvHD study was conducted to determine the effect of combined post-HSCT prophylaxis with 2D10 IgG4PE and rapamycin. The study was performed as described in Example 7, with dosing as follows: 2D10 IgG4PE was administered i.v. at 10 mg/kg on Day −2, Day +5, Day+12, Day+19, Day+26, Day+33, Day+40, Day+47 and Day+56 post-transplant. Rapamycin was administered at a loading dose of 0.1 mg/kg i.m. on Day −14, followed by daily i.m. maintenance doses of 0.025 mg/kg until the scheduled termination of the study at Day+100. Rapamycin dosing was adjusted to maintain serum trough levels within the range 5-15 ng/mL.
This was a cohort study in NHP designed to determine the clinical, immunologic and molecular outcomes of OX40L blockade during allogeneic HCT. Two cohorts of transplant recipients were studied: (1) Allogeneic transplants using the OX40L-blocking human IgG4-PE antibody 1D05 (described as ‘KY1005’ in this Example 11) as monotherapy for GVHD prophylaxis (abbreviated as ‘KY1005’; n=4). KY1005 was given at a dose of 10 mg/kg starting on Days −2 and then once weekly until discontinuation on Days 54 (FIG. 8E). […] (2) Allogeneic transplants using KY1005 in combination with Sirolimus (Rapamycin) ([…]) for GVHD prophylaxis (abbreviated as ‘KY1005/Siro’; n=5). KY1005 was given at a dose of 10 mg/kg starting on Days −2 and then once weekly until discontinuation on Days 54 (FIG. 8P). […] These two OX40L-blockade groups were compared to the following cohorts, aspects of which have been described previously (Furlan et al., 2015; Furlan et al., 2016; Miller et al., 2010) (1) Autologous transplants (abbreviated as ‘Auto’, n=6 for clinical and flow cytometric data and n=4 for transcriptomic analysis) (2); Allogeneic transplants with no GVHD prophylaxis (abbreviated as‘No Rx’, n=11 for clinical and flow cytometric data and n=4 for transcriptomic analysis). (3) Allogeneic transplants using Sirolimus monotherapy for GVHD prophylaxis (LC laboratories, abbreviated as ‘Siro’, n=11 for flow cytometric analysis, n=4 for transcriptomic analysis).

[2] = KY1005 pharmacokinetic (PK) analysis (OX40L capture ECL, MSD); assay type: in vivo, Rhesus macaque; settings: mono-prophylaxis, 10 mg/kg once weekly (FIG. 16A)
Description: For PK analysis, serum samples were collected 30 minutes before and 30 minutes after each infusion of KY1005 and then once weekly after the last dose was given. The KY1005 concentration was measured using an antigen (OX40L) capture electrochemiluminescence (ECL) assay on the MSD platform. In this assay, an MSD streptavidin 96-well plate is first coated with biotinylated-OX40L, followed by the addition of test samples, followed by the detection of bound KY1005 by a ruthenylated anti-human IgG (pre-adsorbed against monkey serum for added specificity).

[3] = system: human T-cells with allogeneic T-cell-depleted cells; assay: Human mixed lymphocyte reaction (CellTrace Violet); assay type: cell-based; settings: KY1005 150 μg/L, 7 days (FIG. 12H)
Description: Human Mixed Lymphocyte Reaction: Human MLRs were performed on unrelated healthy controls. PBMC samples were freshly isolated by Ficoll fractionation, followed by magnetic pan T-cell isolation using the Miltenyi Biotec human pan-T-cell isolation kit. Isolated T-cells were labeled with 2.5 μM CellTrace Violet (Invitrogen) and were co-cultured with irradiated (3500 cGy) on-column T-cell-depleted cell fractions from unrelated allogeneic individuals. MLR cultures were maintained for 7 days at 37° C. in XVivo15 (Lonza) supplemented with 10% FCS, 2 mM glutamine, penicillin-streptomycin and gentamycin and beta-Mercaptoethanol. KY1005 was added to the cultures at day 0 at a dose of 150 μg/L. On Day 7, cells were collected from the cultures, and were stained with antibodies against CD3, CD4, CD8, and then Live/Dead Aqua (Molecular Probes/Invitrogen) was added to exclude dead cells and debris. CellTrace Violet dilution was then measured in CD3^+, Live/Dead Aqua-cells by flow cytometry.

[4] = target: T1, recombinant hOX40L (Homo sapiens, UniProt P23510); assay: Surface plasmon resonance, apparent affinity to human OX40L; assay type: binding; settings: SPR, 25° C.; CNROR = Cannot resolve off-rate
T1 construct: cDNA encoding the extracellular domain of human OX40L was cloned into a pREP4 expression plasmid; isoleucine zipper (N); made in house; host or cells: FreeStyle CHO-S (transient)
Description: (§1) SPR analysis was carried out using the ProteOn™ XPR36 Array System (BioRad). Anti-mouse IgG (GE Healthcare BR-1008-38) was immobilised on a GLM biosensor surface using amine coupling, the surface was then blocked using 1 M ethanolamine. Test antibodies were captured on this surface and recombinant hOX40L (human and rhesus) were used at a single concentration of 256 nM, binding sensorgrams were double referenced using a buffer injection (i.e. 0 nM) to remove baseline drift and injection artefacts. Apparent affinities for the OX40L-antibody interaction were determined using the 1:1 model inherent to the ProteOn XPR36 analysis software. The assay was run using HBS-EP (Teknova) as running buffer and carried out at 25° C.

[5] = target: Rhesus monkey OX40L; assay: Surface plasmon resonance, apparent affinity to rhesus OX40L; assay type: binding, Rhesus (Macaca mulatta); settings: SPR, 25° C.; CNROR = Cannot resolve off-rate
Description: as §1

[6] = Rhesus HSCT, 2D10 IgG4PE 10 mg/kg i.v. weekly from Day −2, one line per animal, brackets = experimental failure

T1 sequence (P23510 with tags, fused parts or gaps): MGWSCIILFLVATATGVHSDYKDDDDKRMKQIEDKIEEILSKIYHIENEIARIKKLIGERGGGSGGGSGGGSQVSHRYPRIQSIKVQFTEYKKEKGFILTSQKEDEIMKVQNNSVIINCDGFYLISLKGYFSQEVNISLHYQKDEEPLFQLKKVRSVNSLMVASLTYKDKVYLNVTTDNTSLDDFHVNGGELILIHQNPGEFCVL
Sequence of Rhesus monkey OX40L (as listed by the source): as the sequence (P23510 with tags, fused parts or gaps) above, with R77Q, K95E counted along it

Row | Molecule | MST ([1]; Example 11 (FIG. 7C)) | GVHD-free survival ([1]; Example 11, NHP (FIG. 7C)) | Survival ([1]; Table 8, per animal, Seattle) | KY1005 trough [2] | allo-proliferation of human cells in vitro [3] | Apparent Affinity hOX40L (nM) [4] | Apparent Affinity RhsOX40L (nM) [5] | median survival time, MST ([1]; Example 9, post-HSCT prophylaxis, Rhesus macaque (FIG. 7)) | Survival Duration [1, 6] | Survival Duration (days) [1, 6] | survival of animals after allogeneic HCT ([1]; Rhesus macaque) | Gross necropsy, visceral GvHD ([1]; animal #4) | adverse dosing side effects ([1]; rhesus monkey, in vivo, iv, 10 mg/kg)
1 | KY1005: antibody used for GVHD immunoprophylaxis in NHP, measured by antigen (OX40L) capture assay; not tied to 02D10 in this part | 19.5 days | 19.5 days | 16 day (2×) and 26 day and 23 day | 107.9 ± 11.7 mg/L | inhibit allo-proliferation of human cells in vitro |  |  |  |  |  |  |  | 
2 | B1 |  |  |  |  |  | CNROR | CNROR | 19 days | 22 days and 16 days (2×) and 26 days | (24) days | prolonged survival | no overt visceral GvHD | No serious adverse dosing side effects
